Assay results reported in PMC12197871 (Protein Science : A Publication of the Protein Society, 2025).

Target: GsLDH (Geobacillus stearothermophilus, UniProt P00344)
Test: GsLDH kinetic studies
Assay type: biochemical

fold higher substrate inhibition (lower K i) compared to the WT (with FBP) [fold]	n (Hill coefficient) (without FBP)	Molecule	k cat (with FBP (5 mM)) [s⁻¹]	k cat/K m or k cat/K 0.5 (with FBP (5 mM)) [M⁻¹ s⁻¹]	k cat (without FBP) [s⁻¹]	k cat/K m or k cat/K 0.5 (without FBP) [M⁻¹ s⁻¹]
20	1.4 ± 0.1	Gln189Leu: GsLDH single mutant Gln189Leu, located at the dimer–dimer interface (protein, UniProt P00344 1-317, looked up, variant Q189L) L-lactate dehydrogenase: MKNNGGARVVVIGAGFVGASYVFALMNQGIADEIVLIDANESKAIGDAMDFNHGKVFAPKPVDIWHGDYDDCRDADLVVICAGANQKPGETRLDLVDKNIAIFRSIVESVMASGFQGLFLVATNPVDILTYATWKFSGLPHERVIGSGTILDTARFRFLLGEYFSVAPQNVHAYIIGEHGDTELPVWSLAYIGVMPIRKLVESKGEEAQKDLERIFVNVRDAAYQIIEKKGATYYGIAMGLARVTRAILHNENAILTVSAYLDGLYGERDVYIGVPAVINRNGIREVIEIELNDDEKNRFHHSAATLKSVLARAFTR	83	106000 ± 19000	73 ± 12	32000 ± 4000
–	–	Triple mutant: previously reported GsLDH triple mutant with substitutions Arg104Cys, Gln189Leu and Asn293Ser (protein, UniProt P00344 1-317, looked up, variant R104C Q189L N293S) L-lactate dehydrogenase: MKNNGGARVVVIGAGFVGASYVFALMNQGIADEIVLIDANESKAIGDAMDFNHGKVFAPKPVDIWHGDYDDCRDADLVVICAGANQKPGETRLDLVDKNIAIFCSIVESVMASGFQGLFLVATNPVDILTYATWKFSGLPHERVIGSGTILDTARFRFLLGEYFSVAPQNVHAYIIGEHGDTELPVWSLAYIGVMPIRKLVESKGEEAQKDLERIFVNVRDAAYQIIEKKGATYYGIAMGLARVTRAILHNENAILTVSAYLDGLYGERDVYIGVPAVINRNGIREVIEIELSDDEKNRFHHSAATLKSVLARAFTR	94	156000 ± 59000	57 ± 8	141000 ± 18000
–	1.5 ± 0.1	WT: wild‐type L‐lactate dehydrogenase from Geobacillus stearothermophilus (UniProt P00344), N‐terminal His‐tagged (protein, UniProt P00344 1-317, looked up, N-terminal His-tag) L-lactate dehydrogenase: MKNNGGARVVVIGAGFVGASYVFALMNQGIADEIVLIDANESKAIGDAMDFNHGKVFAPKPVDIWHGDYDDCRDADLVVICAGANQKPGETRLDLVDKNIAIFRSIVESVMASGFQGLFLVATNPVDILTYATWKFSGLPHERVIGSGTILDTARFRFLLGEYFSVAPQNVHAYIIGEHGDTELPVWSQAYIGVMPIRKLVESKGEEAQKDLERIFVNVRDAAYQIIEKKGATYYGIAMGLARVTRAILHNENAILTVSAYLDGLYGERDVYIGVPAVINRNGIREVIEIELNDDEKNRFHHSAATLKSVLARAFTR	64	144000 ± 67000	118 ± 34	43000 ± 13000
